The results in this text go back to patent US20260308258 (published 2026).

Like-named read-outs stand apart in the source and are kept apart here. Some results are limits rather than exact numbers.

Assay [1] deals with CD16a-F ECD (human). Put plainly: ELISA, + 10 mg/ml hIgG. In general terms: An ELISA detects its analyte on a solid surface through an enzyme-linked reagent.
The target of assay [2] is CD16a-V ECD (human). Briefly: ELISA.
In assay [3] the target is CD16a-F ECD (human). Briefly: ELISA.
Assay [4] has as its target CD16a-V ECD (human). Put plainly: ELISA, + 10 mg/ml hIgG.
For another assay, the target named is CD16a-F ECD-Fc (human). Briefly: ELISA.
Assay [5] addresses T1, CD16b-NA1 ECD (human).
T1 chain: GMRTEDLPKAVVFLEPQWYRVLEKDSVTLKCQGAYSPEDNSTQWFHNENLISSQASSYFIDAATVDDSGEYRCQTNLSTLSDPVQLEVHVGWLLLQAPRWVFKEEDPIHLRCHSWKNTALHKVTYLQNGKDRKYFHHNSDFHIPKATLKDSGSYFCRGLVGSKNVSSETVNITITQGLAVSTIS
Briefly: ELISA.

Assay [6] addresses T2, CD16b-NA2 ECD (human).
T2 chain: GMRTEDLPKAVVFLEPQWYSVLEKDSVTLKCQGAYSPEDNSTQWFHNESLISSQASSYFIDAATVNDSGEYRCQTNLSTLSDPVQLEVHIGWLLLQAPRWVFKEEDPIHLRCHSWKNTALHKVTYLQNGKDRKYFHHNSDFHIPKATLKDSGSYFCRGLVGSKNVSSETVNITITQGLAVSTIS
Put plainly: ELISA.

Assay [7] addresses CD16a-V ECD (human). Briefly: ELISA. This is another data set of the same source.
The target of assay [8] is CD16a-F ECD deglycosylated (human). Briefly: ELISA.
Assay [9] addresses T2, CD16b-NA2 ECD. Put plainly: ELISA.
Assay [10] addresses T3, CD16b-NA1 ECD deglycosylated (human).
T3 chain: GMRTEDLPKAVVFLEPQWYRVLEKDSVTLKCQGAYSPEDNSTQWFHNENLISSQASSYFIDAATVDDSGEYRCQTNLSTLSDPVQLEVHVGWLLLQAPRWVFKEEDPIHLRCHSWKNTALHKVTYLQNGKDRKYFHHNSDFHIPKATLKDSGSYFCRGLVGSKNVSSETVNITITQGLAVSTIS
Put plainly: ELISA.

The target in assay [11] is CD16a-V ECD (human). Put plainly: BLI, 30C. (In BLI a coated tip is dipped into the sample, and binding shifts an interference pattern.)
For assay [12], the target named is CD16a-F ECD (human). Put plainly: BLI, 30C.
In a further assay the target is T4, Cyno CD16a ECD (cynomolgus).
T4 chain: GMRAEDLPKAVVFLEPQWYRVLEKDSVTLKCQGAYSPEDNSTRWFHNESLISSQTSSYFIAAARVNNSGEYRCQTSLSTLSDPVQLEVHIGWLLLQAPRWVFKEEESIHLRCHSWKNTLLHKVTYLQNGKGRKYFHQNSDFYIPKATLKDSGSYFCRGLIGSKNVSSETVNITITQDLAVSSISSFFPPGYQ
Briefly: BLI, 30C.

Assay [13] addresses T5, CD16b-NA2 ECD deglycosylated (human).
T5 chain: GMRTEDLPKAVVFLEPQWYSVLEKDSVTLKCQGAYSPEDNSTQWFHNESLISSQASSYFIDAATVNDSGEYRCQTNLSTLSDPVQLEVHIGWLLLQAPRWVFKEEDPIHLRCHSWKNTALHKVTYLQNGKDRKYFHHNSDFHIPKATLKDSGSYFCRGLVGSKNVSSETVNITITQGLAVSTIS
Put plainly: ELISA.

Assay [14] has as its target T2, CD16b-NA2 ECD. Briefly: BLI, 30C.
Assay [15] has as its target CD16a-F ECD (human). Put plainly: ELISA. The source holds these as a separate data set.
In assay [16] the target is CD16a-V ECD (human). Briefly: ELISA. This is another data set of the same source.
Assay [17] concerns the target CD16a-F ECD (human). Briefly: ELISA. The source holds these as a separate data set.
For assay [18], the target named is T1, CD16b-NA1 ECD. Briefly: BLI, 30C.
The next assay addresses T6, Mouse FcgRIV (mouse, UniProt A0A0B4J1G0).
T6 chain: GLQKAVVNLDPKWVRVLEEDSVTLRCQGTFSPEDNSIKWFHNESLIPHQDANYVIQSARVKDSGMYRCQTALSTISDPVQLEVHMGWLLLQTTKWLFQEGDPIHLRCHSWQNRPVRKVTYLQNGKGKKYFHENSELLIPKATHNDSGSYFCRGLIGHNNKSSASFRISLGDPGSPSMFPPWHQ
Put plainly: BLI, 30C.

The next assay concerns the target T7, CD16b on neutrophils (human, UniProt O75015).
T7 chain: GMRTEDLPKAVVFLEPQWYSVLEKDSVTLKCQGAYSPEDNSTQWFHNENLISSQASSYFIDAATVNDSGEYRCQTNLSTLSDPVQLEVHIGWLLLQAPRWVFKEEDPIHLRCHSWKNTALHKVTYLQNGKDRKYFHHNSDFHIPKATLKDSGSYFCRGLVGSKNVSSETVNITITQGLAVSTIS
Put plainly: FACS, neutrophils. (In flow cytometry, cells or beads pass a laser one at a time.)

The next assay has as its target CD16a-F D82N (human). Briefly: FACS.
Assay [19] deals with T1, CD16b-NA1 ECD. Put plainly: ELISA.
The target in assay [20] is CD16a-V ECD deglycosylated (human). Put plainly: ELISA.
Assay [21] concerns the target T2, CD16b-NA2 ECD. Put plainly: ELISA.

CD16a-F D82N (human), sequence (chain, as listed by the source D82N): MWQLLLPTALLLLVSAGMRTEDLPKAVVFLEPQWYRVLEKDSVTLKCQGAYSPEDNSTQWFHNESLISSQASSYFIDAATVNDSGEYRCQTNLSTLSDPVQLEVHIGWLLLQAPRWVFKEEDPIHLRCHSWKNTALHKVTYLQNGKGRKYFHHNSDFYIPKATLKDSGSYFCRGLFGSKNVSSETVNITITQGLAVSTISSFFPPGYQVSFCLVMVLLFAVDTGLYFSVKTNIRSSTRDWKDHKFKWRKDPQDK

B1: #3A2 IgG1 (antibody)
chain 1: QLQLQESGPGLVKPSETLSLTCTVSGGSIGRGDYYWGWIRQPPGKGLEWIGTIDYSGRTYYNPSLKSRVTISVDTSKNQFSLKLSSVTAADTAVYYCARAFPGEYFGVFDHWGQGTLVTVSS
chain 2: EIVLTQSPGTLSLSPGERATLSCRASQSVSSSYLAWYQQKPGQAPRLLIYDATSRATGIPDRFSGSGSGTDFTLTISRLEPEDFAVYYCQQYDSSSLITFGQGTKVEIK
Turning to B1, the Kd (in general, a measure of binding affinity in units of concentration) with CD16a-F ECD [1] is 0.74 nM; in the assay with CD16a-V ECD [2], 0.051 nM; with CD16a-F ECD [3], 0.048 nM; with CD16a-V ECD [4], 0.53 nM; in the assay with CD16a-F ECD-Fc, 0.11 nM; with CD16b-NA1 ECD [5], more than 1000 nM. The dissociation constant Kd with CD16b-NA2 ECD [6] came out at 546 nM.

B2: #6A2 IgG1 (antibody)
chain 1: QLQLQESGPGLVKPSETLSLTCTVSGGSIGRGDYYWGWIRQPPGKGLEWIGTIDYSGRTYYNPSLKSRVTISVDTSKNQFSLKLSSVTAADTAVYYCARAFPGEYFGVFDHWGQGTLVTVSS
chain 2: not shown
Turning to B2, the dissociation constant (Kd) with CD16a-F ECD [1] is 0.67 nM; with CD16a-V ECD [2], 0.16 nM; in the assay with CD16a-F ECD [3], 0.14 nM; with CD16a-V ECD [4], 0.61 nM; in the assay with CD16a-F ECD-Fc it was 0.13 nM; with CD16b-NA1 ECD [5], 1300 nM. Besides, the affinity in the assay with CD16b-NA2 ECD [6], expressed as Kd, was 298 nM.

B3: #55 IgG1 (antibody)
chain 1: EVQLLESGGGLVQPGGSLRLSCAASGFTFSNYAMSWVRQAPGKGLEWVSAISGGGSYTYYADSVKGRFTISRDNSKNTLYLQMNSLRAEDTAVYYCARTYLRRWYYFDYWGQGTLVTVSS
chain 2: DIQMTQSPSSLSASVGDRVTITCRASQTITSYLNWYQQKPGKAPKLLIYAASSLQSGVPSRFSGSGSGTDFTLTISSLQPEDFATYYCQQSYTSPVTFGQGTKVEIK
For B3, the dissociation constant (Kd) with CD16a-V ECD [7] was 0.85 nM; in assay [8] it was 1 nM; in the assay with CD16b-NA2 ECD [9] it was 239 nM; in assay [10], 11.2 nM; with CD16a-V ECD [11], 6.6 nM; with CD16a-F ECD [12], 18 nM. Moreover, the Kd in [13] is 1 nM; with CD16b-NA2 ECD [14] it was 214 nM; in the assay with CD16a-F ECD [15] it was 0.28 nM; with CD16a-F ECD-Fc, 0.1 nM; with CD16a-V ECD [16], 0.4 nM; with CD16a-F ECD [17] it was 0.98 nM. Moreover, the dissociation constant Kd is 73 nM with CD16b-NA1 ECD [19], 0.53 nM in assay [20] and approximately 200 nM with CD16b-NA2 ECD [21]. The binding result with Cyno CD16a ECD, in the assay with CD16b-NA1 ECD [18], with Mouse FcgRIV, in the assay with CD16b on neutrophils and with CD16a-F D82N was “no binding” throughout.
